# In patent publication US20110081661A1, “Modified photoproteins with increased affinity for calcium and enhanced bioluminescence and uses thereof” (Millipore Corporation, priority 2009, published 2011):
# Like-named read-outs stand apart in the source and are kept apart here.
# T1: EP1 Receptor (Homo sapiens, UniProt P34995)
# T1 construct: host or cells: HEK293T
# T1 sequence (P34995 1-402): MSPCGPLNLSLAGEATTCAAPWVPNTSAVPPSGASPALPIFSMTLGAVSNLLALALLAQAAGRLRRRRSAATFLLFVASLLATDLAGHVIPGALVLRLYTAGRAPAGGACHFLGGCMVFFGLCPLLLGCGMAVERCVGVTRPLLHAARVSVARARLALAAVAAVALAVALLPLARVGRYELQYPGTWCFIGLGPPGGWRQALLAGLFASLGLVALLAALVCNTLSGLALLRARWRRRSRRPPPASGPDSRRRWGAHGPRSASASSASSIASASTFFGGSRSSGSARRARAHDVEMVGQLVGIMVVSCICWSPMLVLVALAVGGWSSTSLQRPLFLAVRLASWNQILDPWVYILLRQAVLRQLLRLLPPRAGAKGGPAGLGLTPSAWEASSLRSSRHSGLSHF
# T2: GIP Receptor (Homo sapiens, UniProt P48546)
# T2 construct: host or cells: HEK293T
# T2 sequence (P48546 22-466): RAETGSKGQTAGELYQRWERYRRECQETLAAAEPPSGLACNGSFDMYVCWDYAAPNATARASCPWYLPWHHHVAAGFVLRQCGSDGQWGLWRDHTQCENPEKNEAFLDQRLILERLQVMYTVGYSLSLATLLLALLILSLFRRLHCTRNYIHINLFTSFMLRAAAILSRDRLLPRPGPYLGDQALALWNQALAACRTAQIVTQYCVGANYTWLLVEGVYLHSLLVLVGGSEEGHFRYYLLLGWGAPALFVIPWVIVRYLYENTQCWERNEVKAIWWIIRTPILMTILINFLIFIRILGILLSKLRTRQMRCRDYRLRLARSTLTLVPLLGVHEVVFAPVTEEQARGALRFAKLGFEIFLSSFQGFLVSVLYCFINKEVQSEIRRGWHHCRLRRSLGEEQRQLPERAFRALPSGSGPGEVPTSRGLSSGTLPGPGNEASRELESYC
# B1: Cyto-aequorin: Wild-type Aequorin (wt-Aequorin) amino acid sequence, SEQ ID NO:2; cytosolic (protein, listed as Aequorea victoria)
# chain: MTSKQYSVKLTSDFDNPRWIGRHKHMFNFLDVNHNGKISLDEMVYKASDIVINNLGATPEQAKRHKDAVEAFFGGAGMKYGVETDWPAYIEGWKKLATDELEKYAKNEPTLIRIWGDALFDIVDKDQNGAITLDEWKAYTKAAGIIQSSEDCEETFRVCDIDESGQLDVDEMTRQHLGFWYTMDPACEKLYGGAVP
# Tests used:
# [1] = target: T1, EP1 Receptor; assay type: cell-based; conditions: read-out: EP1 Receptor EC50 for PGE2
# Procedure: The cells were subsequently thawed and either directly placed into FreeStyle media (INVITROGEN) containing 5 μM coelenterazine (Thaw/Assay), or plated in a flask overnight in growth media consisting of DMEM/F12 containing 10% fetal bovine serum, non-essential amino acids, and penicillin/streptomycin prior to loading with coelenterazine (Thaw/ON Recovery). After loading with coelenterazine for 3-4 h, the cells were centrifuged and resuspended in HBSS with calcium and magnesium.
# Thaw/Assay indicates dose response of cells that were thawed and directly loaded with coelenterazine prior to assay, and Thaw/ON Recovery indicates dose response of cells allowed to recover in growth media overnight prior to loading and assay. […] The EC50 values for activation of each receptor by its ligand for each cell treatment method were determined as described above for FIG. 5 for cytosolic clytin K168D photoprotein transfected into HEK293T cells with cotransfected GIP Receptor and G protein.
# [2] = target: T1, EP1 Receptor; test: Fluorescent calcium assay, stable cell line, EP1 Receptor; assay type: cell-based; conditions: read-out: EP1 Receptor EC50 for PGE2; Fluorescent Ca^2+ assay, cell line stably expressing the receptor
# [3] = Calcium EC50 of mitochondrially targeted photoproteins in HEK293T cells without cotransfected GPCR or G protein (Table II); assay type: cell-based; conditions: no cotransfected GPCR or G protein
# [4] = target: T3, H1 histamine receptor (Homo sapiens, UniProt P35367); test: GPCR-mediated versus total bioluminescence in U-2OS cells (FIG. 4); assay type: cell-based; conditions: 10 μM histamine vs Triton X-100 with 1 mM calcium
# T3 construct: expressed in transfected cells; host or cells: U-2OS
# T3 sequence (P35367 whole entry): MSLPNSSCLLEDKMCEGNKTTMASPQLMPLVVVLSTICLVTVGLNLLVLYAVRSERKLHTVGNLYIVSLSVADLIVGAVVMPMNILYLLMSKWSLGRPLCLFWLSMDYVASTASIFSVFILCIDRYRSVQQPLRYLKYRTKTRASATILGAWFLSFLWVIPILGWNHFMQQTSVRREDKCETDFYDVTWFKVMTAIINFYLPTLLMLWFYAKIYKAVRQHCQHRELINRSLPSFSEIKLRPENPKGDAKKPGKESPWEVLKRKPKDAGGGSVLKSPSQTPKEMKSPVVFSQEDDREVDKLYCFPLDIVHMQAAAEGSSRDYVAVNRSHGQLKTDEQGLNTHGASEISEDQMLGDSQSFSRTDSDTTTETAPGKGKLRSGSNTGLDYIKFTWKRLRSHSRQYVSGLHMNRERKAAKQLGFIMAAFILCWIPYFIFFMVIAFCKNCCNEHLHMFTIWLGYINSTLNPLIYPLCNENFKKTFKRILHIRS
# Procedure: In another experiment, the ability of the various photoproteins to detect calcium flux in live cells was assessed by adding varying concentrations of histamine to cells in order to activate the H1 histamine receptor followed by measurement of bioluminescence of the various photoproteins. U-2OS cells were transfected with a cDNA encoding H1 histamine receptor along with a cDNA encoding either a wild-type photoprotein or a modified photoprotein according to the invention, as described above in Example 2, except that Lipofectamine-2000 (INVITROGEN) was used as the transfection reagent. On the second day, the cells were trypsinized, counted, and plated in a white tissue-culture treated 96-well plate (COSTAR) at a density of about 50,000 cells/well in growth media consisting of DMEM containing 10% fetal bovine serum, non-essential amino acids, HEPES and penicillin/streptomycin. On the third day, the medium was removed and cells were washed once with 200 μl/well of HBSS/HEPES (containing Ca^2+). Cells were subsequently incubated with 5 μM coelenterazine in HBSS/HEPES (containing Ca^2+) in a volume of 200 μl/well, for 3-4 hours at room temperature in the dark. After incubation, the coelenterazine solution was removed and cells were washed and replaced with HBSS/HEPES buffer containing both Ca^2+ and Mg^2+. 50 μl/well of histamine at varying concentrations in HBSS/HEPES containing both Ca^2+ and Mg^2+ was added to the cells and total bioluminescence was measured at 20 seconds using a Victor2 luminometer.
# In an exemplary experiment, U-2OS cells were transfected, plated and loaded with coelenterazine as described in Example 3. Luminescence induced by buffer alone or by 10 μM histamine was measured also as described in Example 3. Additionally, luminescence induced by addition of Triton X-100 in the presence of 1 mM calcium was also determined in order to assess the total amount of active photoprotein detectable using saturating calcium concentrations in cells.
# [5] = target: T2, GIP Receptor; test: GIP receptor-mediated bioluminescence in HEK293T cells with chimeric promiscuous G protein (FIG. 5, Table II); assay type: cell-based
# [6] = background statement; cited from earlier work
Molecule,"EC50 ([1]; Luminescent Assay, Thaw/Assay) [nM]","EC50 ([1]; Luminescent assay, Thaw/ON Recovery) [nM]",EC50 [2] [nM],EC50 [3] [nM],GPCR-mediated signal as % of the total signal [4],"Max signal with GIP (RLU × 10^−5) ([5]; HEK293T cells, GIP Receptor + promiscuous G protein)","EC50 ([5]; HEK293T cells, GIP Receptor + promiscuous G protein, luminescence vs GIP concentration) [nM]",% GPCR/total ([5]; signal induced by maximal GIP (1 μM) as percentage of signal induced by Triton X-100 with 1 mM Ca^2+) [%],Signal: background with GIP ([5]; signal induced by maximal GIP (1 μM) divided by signal induced by buffer alone),affinity for calcium [6]
"CCCCC[C@H](O)/C=C/[C@H]1[C@H](O)CC(=O)[C@@H]1C/C=C\CCCC(=O)O [PGE2, prostaglandin E2]",6,10,3,,,,,,,
B1,,,,235,about 30%,1.21,6.67,13.0,29.4,around 7 μM
